Source: IntAct's records for PubMed 31515488

B1: Guanine nucleotide exchange factor for Rab-3A (Homo sapiens), Q8TBN0 (parent)
chain: MWSGPPQPDQGLPPPLAAVPVPWKSTDPCQGHRESPGALVETSAGEEAQGQEGPAAAQLDVLRLRSSSMEIREKGSEFLKEELHRAQKELKLKDEECERLSKVREQLEQELEELTASLFEEAHKMVREANMKQAASEKQLKEARGKIDMLQAEVTALKTLVITSTPASPNRELHPQLLSPTKAGPRKGHSRHKSTSSTLCPAVCPAAGHTLTPDREGKEVDTILFAEFQAWRESPTLDKTCPFLERVYREDVGPCLDFTMQELSVLVRAAVEDNTLTIEPVASQTLPTVKVAEVDCSSTNTCALSGLTRTCRHRIRLGDSKSHYYISPSSRARITAVCNFFTYIRYIQQGLVRQDAEPMFWEIMRLRKEMSLAKLGFFPQEA
B2: Mannose-1-phosphate guanylyltransferase regulatory subunit alpha (Homo sapiens), Q96IJ6 (parent)
chain: MLKAVILIGGPQKGTRFRPLSFEVPKPLFPVAGVPMIQHHIEACAQVPGMQEILLIGFYQPDEPLTQFLEAAQQEFNLPVRYLQEFAPLGTGGGLYHFRDQILAGSPEAFFVLNADVCSDFPLSAMLEAHRRQRHPFLLLGTTANRTQSLNYGCIVENPQTHEVLHYVEKPSTFISDIINCGIYLFSPEALKPLRDVFQRNQQDGQLEDSPGLWPGAGTIRLEQDVFSALAGQGQIYVHLTDGIWSQIKSAGSALYASRLYLSRYQDTHPERLAKHTPGGPWIRGNVYIHPTAKVAPSAVLGPNVSIGKGVTVGEGVRLRESIVLHGATLQEHTCVLHSIVGWGSTVGRWARVEGTPSDPNPNDPRARMDSESLFKDGKLLPAITILGCRVRIPAEVLILNSIVLPHKELSRSFTNQIIL
B3: Spermatogenesis-associated protein 2 (Homo sapiens), Q9UM82 (parent)
chain: MGKPSSMDTKFKDDLFRKYVQFHESKVDTTTSRQRPGSDECLRVAASTLLSLHKVDPFYRFRLIQFYEVVESSLRSLSSSSLRALHGAFSMLETVGINLFLYPWKKEFRSIKTYTGPFVYYVKSTLLEEDIRAILSCMGYTPELGTAYKLRELVETLQVKMVSFELFLAKVECEQMLEIHSQVKDKGYSELDIVSERKSSAEDVRGCSDALRRRAEGREHLTASMSRVALQKSASERAAKDYYKPRVTKPSRSVDAYDSYWESRKPPLKASLSLRKEPVATDVGDDLKDEIIRPSPSLLTMASSPHGSPDVLPPASPSNGPALLRGTYFSTQDDVDLYTDSEPRATYRRQDALRPDVWLLRNDAHSLYHKRSPPAKESALSKCQSCGLSCSSSLCQRCDSLLTCPPASKPSAFPSKASTHDSLAHGASLREKYPGQTQGLDRLPHLHSKSKPSTTPTSRCGFCNRPGATNTCTQCSKVSCDACLSAYHYDPCYKKSELHKFMPNNQLNYKSTQLSHLVYR
partner: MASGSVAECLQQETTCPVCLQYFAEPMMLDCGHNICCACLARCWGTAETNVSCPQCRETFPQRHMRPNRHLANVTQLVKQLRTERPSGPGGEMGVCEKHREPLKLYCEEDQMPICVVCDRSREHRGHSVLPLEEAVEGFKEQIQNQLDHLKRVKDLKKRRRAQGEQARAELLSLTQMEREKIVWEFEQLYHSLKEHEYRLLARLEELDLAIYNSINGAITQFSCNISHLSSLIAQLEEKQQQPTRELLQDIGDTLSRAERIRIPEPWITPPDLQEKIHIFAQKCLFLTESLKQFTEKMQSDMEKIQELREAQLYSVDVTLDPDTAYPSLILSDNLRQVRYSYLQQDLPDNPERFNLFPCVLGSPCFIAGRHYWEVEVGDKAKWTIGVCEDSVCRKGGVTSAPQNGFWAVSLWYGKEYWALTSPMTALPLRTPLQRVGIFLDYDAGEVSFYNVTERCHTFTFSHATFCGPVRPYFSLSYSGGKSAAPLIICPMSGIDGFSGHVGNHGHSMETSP
B4: Huntingtin-interacting protein 1 (Homo sapiens), O00291 (parent)
chain: MDRMASSMKQVPNPLPKVLSRRGVGAGLEAAERESFERTQTVSINKAINTQEVAVKEKHARTCILGTHHEKGAQTFWSVVNRLPLSSNAVLCWKFCHVFHKLLRDGHPNVLKDSLRYRNELSDMSRMWGHLSEGYGQLCSIYLKLLRTKMEYHTKNPRFPGNLQMSDRQLDEAGESDVNNFFQLTVEMFDYLECELNLFQTVFNSLDMSRSVSVTAAGQCRLAPLIQVILDCSHLYDYTVKLLFKLHSCLPADTLQGHRDRFMEQFTKLKDLFYRSSNLQYFKRLIQIPQLPENPPNFLRASALSEHISPVVVIPAEASSPDSEPVLEKDDLMDMDASQQNLFDNKFDDIFGSSFSSDPFNFNSQNGVNKDEKDHLIERLYREISGLKAQLENMKTESQRVVLQLKGHVSELEADLAEQQHLRQQAADDCEFLRAELDELRRQREDTEKAQRSLSEIERKAQANEQRYSKLKEKYSELVQNHADLLRKNAEVTKQVSMARQAQVDLEREKKELEDSLERISDQGQRKTQEQLEVLESLKQELATSQRELQVLQGSLETSAQSEANWAAEFAELEKERDSLVSGAAHREEELSALRKELQDTQLKLASTEESMCQLAKDQRKMLLVGSRKAAEQVIQDALNQLEEPPLISCAGSADHLLSTVTSISSCIEQLEKSWSQYLACPEDISGLLHSITLLAHLTSDAIAHGATTCLRAPPEPADSLTEACKQYGRETLAYLASLEEEGSLENADSTAMRNCLSKIKAIGEELLPRGLDIKQEELGDLVDKEMAATSAAIETATARIEEMLSKSRAGDTGVKLEVNERILGCCTSLMQAIQVLIVASKDLQREIVESGRGTASPKEFYAKNSRWTEGLISASKAVGWGATVMVDAADLVVQGRGKFEELMVCSHEIAASTAQLVAASKVKADKDSPNLAQLQQASRGVNQATAGVVASTISGKSQIEETDNMDFSSMTLTQIKRQEMDSQVRVLELENELQKERQKLGELRKKHYELAGVAEGWEEGTEASPPTLQEVVTEKE
partner: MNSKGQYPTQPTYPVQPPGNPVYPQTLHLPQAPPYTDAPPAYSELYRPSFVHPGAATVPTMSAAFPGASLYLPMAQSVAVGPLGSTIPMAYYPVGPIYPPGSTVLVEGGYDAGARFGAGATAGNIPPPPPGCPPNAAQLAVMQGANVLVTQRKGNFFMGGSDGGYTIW
B5: Serine/threonine-protein kinase PAK 5 (Homo sapiens), Q9P286 (parent)
chain: MFGKKKKKIEISGPSNFEHRVHTGFDPQEQKFTGLPQQWHSLLADTANRPKPMVDPSCITPIQLAPMKTIVRGNKPCKETSINGLLEDFDNISVTRSNSLRKESPPTPDQGASSHGPGHAEENGFITFSQYSSESDTTADYTTEKYREKSLYGDDLDPYYRGSHAAKQNGHVMKMKHGEAYYSEVKPLKSDFARFSADYHSHLDSLSKPSEYSDLKWEYQRASSSSPLDYSFQFTPSRTAGTSGCSKESLAYSESEWGPSLDDYDRRPKSSYLNQTSPQPTMRQRSRSGSGLQEPMMPFGASAFKTHPQGHSYNSYTYPRLSEPTMCIPKVDYDRAQMVLSPPLSGSDTYPRGPAKLPQSQSKSGYSSSSHQYPSGYHKATLYHHPSLQSSSQYISTASYLSSLSLSSSTYPPPSWGSSSDQQPSRVSHEQFRAALQLVVSPGDPREYLANFIKIGEGSTGIVCIATEKHTGKQVAVKKMDLRKQQRRELLFNEVVIMRDYHHDNVVDMYSSYLVGDELWVVMEFLEGGALTDIVTHTRMNEEQIATVCLSVLRALSYLHNQGVIHRDIKSDSILLTSDGRIKLSDFGFCAQVSKEVPKRKSLVGTPYWMAPEVISRLPYGTEVDIWSLGIMVIEMIDGEPPYFNEPPLQAMRRIRDSLPPRVKDLHKVSSVLRGFLDLMLVREPSQRATAQELLGHPFLKLAGPPSCIVPLMRQYRHH
partner: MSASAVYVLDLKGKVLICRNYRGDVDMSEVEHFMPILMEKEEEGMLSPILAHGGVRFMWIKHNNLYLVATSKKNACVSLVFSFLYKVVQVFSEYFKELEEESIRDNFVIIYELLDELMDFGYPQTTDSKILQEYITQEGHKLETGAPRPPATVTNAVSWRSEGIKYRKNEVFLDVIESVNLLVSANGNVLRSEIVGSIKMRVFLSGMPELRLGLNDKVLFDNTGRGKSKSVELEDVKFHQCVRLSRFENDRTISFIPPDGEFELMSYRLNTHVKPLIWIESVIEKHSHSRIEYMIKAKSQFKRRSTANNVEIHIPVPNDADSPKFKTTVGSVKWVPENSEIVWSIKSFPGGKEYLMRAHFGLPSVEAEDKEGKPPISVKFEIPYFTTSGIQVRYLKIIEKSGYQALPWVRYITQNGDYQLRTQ
B6: Melanoma-associated antigen 8 (Homo sapiens), P43361 (parent)
chain: MLLGQKSQRYKAEEGLQAQGEAPGLMDVQIPTAEEQKAASSSSTLIMGTLEEVTDSGSPSPPQSPEGASSSLTVTDSTLWSQSDEGSSSNEEEGPSTSPDPAHLESLFREALDEKVAELVRFLLRKYQIKEPVTKAEMLESVIKNYKNHFPDIFSKASECMQVIFGIDVKEVDPAGHSYILVTCLGLSYDGLLGDDQSTPKTGLLIIVLGMILMEGSRAPEEAIWEALSVMGLYDGREHSVYWKLRKLLTQEWVQENYLEYRQAPGSDPVRYEFLWGPRALAETSYVKVLEHVVRVNARVRISYPSLHEEALGEEKGV
partner: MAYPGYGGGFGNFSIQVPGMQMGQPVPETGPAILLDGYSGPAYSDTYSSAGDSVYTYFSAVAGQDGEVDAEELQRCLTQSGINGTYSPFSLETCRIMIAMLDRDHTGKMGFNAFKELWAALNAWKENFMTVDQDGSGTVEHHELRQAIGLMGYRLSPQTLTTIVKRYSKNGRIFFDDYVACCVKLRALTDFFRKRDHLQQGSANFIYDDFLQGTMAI
B7: Coiled-coil domain-containing protein 70 (Homo sapiens), Q6NSX1 (parent)
chain: MFSFKVSRWMGLACFRSLAASSPSIRQKKLMHKLQEEKAFREEMKIFREKIEDFREEMWTFRGKIHAFRGQILGFWEEERPFWEEEKTFWKEEKSFWEMEKSFREEEKTFWKKYRTFWKEDKAFWKEDNALWERDRNLLQEDKALWEEEKALWVEERALLEGEKALWEDKTSLWEEENALWEEERAFWMENNGHIAGEQMLEDGPHNANRGQRLLAFSRGRA
partner: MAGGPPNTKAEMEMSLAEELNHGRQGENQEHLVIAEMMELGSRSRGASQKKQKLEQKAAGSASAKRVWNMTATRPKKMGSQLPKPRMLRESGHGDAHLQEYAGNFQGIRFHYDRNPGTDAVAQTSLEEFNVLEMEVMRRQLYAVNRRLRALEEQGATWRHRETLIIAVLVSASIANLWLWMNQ

Variants of: B1
Settings: with rb11a_human RAB11A

Row | Variant | effect of a mutation on the interaction
1 | T26A | with no effect
2 | S190P | with no effect
3 | H323Y | with no effect

Variants of: B2
Settings: with gmppb_human GMPPB

Row | Variant | effect of a mutation on the interaction
4 | V156I | with no effect

Variants of: B3
Settings: with tri27_human TRIM27, P14373

Row | Variant | effect of a mutation on the interaction
5 | L443F | disrupting interaction strength

Variants of: B4
Settings: with dazp2_human DAZAP2, Q15038

Row | Variant | effect of a mutation on the interaction
6 | M263K | with no effect

Variants of: B5
Settings: with ap1m1_human AP1M1, Q9BXS5

Row | Variant | effect of a mutation on the interaction
7 | V604I | with no effect
8 | S511N | with no effect

Variants of: B6
Settings: with gran_human GCA

Row | Variant | effect of a mutation on the interaction
9 | R121H | with no effect
10 | R9C | with no effect

Variants of: B7
Settings: with fate1_human FATE1, Q969F0

Row | Variant | effect of a mutation on the interaction
11 | R62Q | with no effect
